Assay results published in patent US9969998B2, “Compositions of adenosine deaminase-2 (ADA2), variants thereof and methods of using same” (Halozyme, Inc., priority 2014, dated 2018).
Where a chain is given by its changes, count along the chain named. Names may count otherwise. “Also recorded” adds a separate entry of the source.

B1: ADA2: wild-type human adenosine deaminase 2, mature form SEQ ID NO:5, homodimer (protein, listed as Homo sapiens)
chain: IDETRAHLLLKEKMMRLGGRLVLNTKEELANERLMTLKIAEMKEAMRTLIFPPSMHFFQAKHLIERSQVFNILRMMPKGAALHLHDIGIVTMDWLVRNVTYRPHCHICFTPRGIMQFRFAHPTPRPSEKCSKWILLEDYRKRVQNVTEFDDSLLRNFTLVTQHPEVIYTNQNVVWSKFETIFFTISGLIHYAPVFRDYVFRSMQEFYEDNVLYMEIRARLLPVYELSGEHHDEEWSVKTYQEVAQKFVETHPEFIGIKIIYSDHRSKDVAVIAESIRMAMGLRIKFPTVVAGFDLVGHEDTGHSLHDYKEALMIPAKDGVKLPYFFHAGETDWQGTSIDRNILDALMLNTTRIGHGFALSKHPAVRTYSWKKDIPIEVCPISNQVLKLVSDLRNHPVATLMATGHPMVISSDDPAMFGAKGLSYDFYEVFMGIGGMKADLRTLKQLAMNSIKYSTLLESEKNTFMEIWKKRWDKFIADVATK
modifications: ADA2 mature protein
B2: PEG-K374D: rHuADA2-K374D (SEQ ID NO:20) PEGylated on surface exposed lysines with linear PEG-20K (conjugate)
chain: B1 chain with K371D
modifications: linear PEG-20K on surface lysines; human ADA2 K371D, mature numbering

Legend:
[1] = test system: CT26 murine primary colon carcinoma; experiment: CT26 syngeneic tumor model; set-up: species or system BALB/c mice; conditions: mouse
Description: Exemplary of an animal tumor model that can be used to assess the effect of cancer treatment using ADA2 provided herein is the CT26 syngeneic tumor model. This model is created by subcutaneous injection of CT26 murine primary colon carcinoma (ATCC CRL-2638) cells into syngeneic BALB/c mice. The mice are staged until the tumor is established, then the agent used for treatment, such as any ADA2 provided herein or combination therapy including ADA2 treatment, are administered. Another example of an animal tumor model of pancreatic cancer involves the generation of tumors in animals using BxPC-3 pancreatic adenocarcinoma cells (see e.g. Von Hoff et al. (2011) J. Clin. Oncol., 29:4548-54). […]
In other examples, tumor volume can be measured using an average of measurements of tumor diameter (D) obtained by caliper or ultrasound assessments. For example, tumor volume can be determined using VisualSonics Vevo 770 high-resolution ultrasound or other similar ultrasound. The volume can be determined from the formula V=D^3×π/6 (for diameter measured using calipers) or V=D^2×d×π/6 (for diameter measured using ultrasound where d is the depth or thickness). For example, caliper measurements can be made of the tumor length (l) and width (w) and tumor volume calculated as length×width^2×0.52. […] Tumor volumes can be determined by using available software (e.g., Amira 3.1 software; Mercury Computer Systems). […]

[2] = Stability of ADA activity in plasma; format: in vitro ADME, mouse; conditions: long incubation (e.g., 24 hours) in plasma
Description: For therapeutic uses, such as for treatment of tumors or cancers, it is desirable to administer to the subject a dosage of ADA2 that will maintain plasma adenosine deaminase (ADA) activity for a sufficient time for therapeutic effect. […] The plasma stability of any ADA2 described herein, such as a wildtype, variant or conjugate, can be determined by measuring the changes in enzymatic activity and/or other physical properties, before and after incubation in plasma, e.g., ex vivo mammalian plasma.
Stability can be assessed in vitro or in vivo. For example, stability can be tested after exposure to plasma for a desired length of time, which can be empirically determined or selected by a skilled artisan depending on the desired length of time. For example, the incubation time can be at least 1 hour, such as at least 2, 3, 4, 5, 10, 15, 20, 24, 30, 36, 48, 60, 72 hours or more. The protein can be directly administered systemically, such as intravenously, and activity can be assessed. In other examples, the protein can be subject to appropriate incubation conditions in vitro. In one example, the stability of ADA activity of any ADA2 provided herein can be measured after incubation at 37° C., in 25% ex vivo plasma or serum, such as human or non-human plasma or serum, for example, mouse plasma. […]

[3] = test system: KLN205 murine lung cancer tumor; experiment: Tumor growth inhibition of combination therapy with anti-PD-1, KLN205 syngeneic tumor model; format: in vivo, DBA/2 mice; conditions: study day 14, PEG-K374D 0.3 mg/kg IV biweekly, α-PD-1 2 mg/kg IP biweekly
Description: KLN205 syngeneic tumor models were produced by injecting thirty-two (32) DBA/2 mice with 5×10^5 KLN205 murine lung cancer tumor cells (ATCC CRL-1453), in 0.1 mL injection volume per animal, subcutaneously. Tumor bearing mice were staged into treatment groups when the average tumor size reached approximately 100 mm^3.
For treatment, animals were randomized into 4 groups (n=8/group): 1) saline vehicle control, 2) PEG-K374D, 3) α-PD-1 antibody (Clone RMP1-14, Cat. No. BE0146; BioXCell, West Lebanon, N.H.), or 4) PEG-K374D+α-PD-1. PEG-K374D was dosed intravenously biweekly at 0.3 mg/kg, and α-PD-1 was dosed intraperitoneally biweekly at 2 mg/kg). The sequence of dosing in the combination group was PEG-K374D immediately followed by α-PD-1.
where “Tn” is the average tumor volume for the treatment group at day “n” after the final dose of PEG-K374D and α-PD-1 or control; “T0” is the average tumor volume in that treatment group at day 0, before treatment; “Cn” is the average tumor volume for the corresponding control group at day “n”; and “C0” is the average tumor volume in the control group at day 0, before treatment.

[4] = In vivo pharmacokinetics of PEGylated rHuADA2 combination variants (Example 14); conditions: BALB/c mice, 3 mg/kg intravenous
Description: Twenty-seven (27) male BALB/c mice were divided into three (3) dosing groups, and were further divided into three (3) groups each for sampling of blood at different time points. Thus, the mice were randomized into nine (9) groups total. Mice were weighed prior to the start of the study, and randomized into the 9 groups based upon their body weights. In each sampling group, three groups of (3) mice were used for dosing each test article to prevent oversampling of the blood from the animals. For measurement of baseline ADA2 levels, a blood sample was obtained from 12 randomly chosen mice and plasma was prepared using the anti-coagulant potassium (K3) ethylene diamine tetraacetic acid (K3-EDTA). All blood was collected by submandibular venipuncture.
PEGylated ADA2 variants were prepared using the PEGylation method as described in Example 8.A, with minor modifications. Briefly, all ADA2 variants at 10 mg/mL were PEGylated with linear PEG-20K (JenKem Technology, Plano, Tex.; Cat. No. M-SCM-20K) at 1:15 molar ratio and incubated first at 37° for 30 min, then at 4° C. for 16 hours.
Approximately 200 μL of whole blood was collected at designated sampling time points from appropriate groups of mice as indicated below in Table 38 and kept on ice until plasma preparation. The initial two (2) blood samples were collected by submandibular venipuncture. The final sample was collected from a terminal bleed. Plasma was prepared by centrifuging the blood (500×g for 5 min at 4° C.), transferring the plasma to a fresh tube and immediately freezing at −80° C. until the adenosine deaminase activity assay. Adenosine deaminase activity was determined as described in Example 4.
Non-compartmental analysis (NCA) was conducted using the Phoenix WinNonlin version 6.3 (Pharsight Corp, St. Louis, Mo. 63101). The half-life, or time taken for the activity of ADA2 proteins to be reduced by half, was calculated. Also, total exposure was measured by calculating the Area Under the Concentration-time Curve (AUC). The AUC and half-life values were obtained from the unweighted average from each test article group. The following options in the Phoenix WinNonlin program were used for data analysis: (i) linear trapezoidal/linear interpolation option for AUC; (ii) best-fit slope selection option for terminal slope; and (iii) uniform weighting of the data.

[5] = vs non-PEGylated WT rHuADA2 of Example 9

| Molecule | tumor growth in vivo [1] | stability in plasma [2] | Average Tumor Volume [3] [mm^3] | Tumor Growth Inhibition [3] | Tumor Growth Inhibition ([3]; vs vehicle) [%] | AUC (total exposure) ([4]; plasma ADA activity) | Half-life slow (t1/2) ([4]; plasma ADA activity) | Percent increase in AUC compared to WT ADA2 [4, 5] | Percent increase in t1/2 compared to WT ADA2 [4, 5] |
| --- | --- | --- | --- | --- | --- | --- | --- | --- | --- |
| B1 | reduce tumor growth | more stable than ADA1 |  |  |  |  |  |  |  |
| B2 |  |  | 264.56 | inhibited tumor growth; also recorded: greater tumor growth inhibition than either α-PD-1 treatment alone or the PEG-K374D+α-PD-1 combination therapy | 78 | 4,662 (U * h)/mL | 2,256 min | 14,177% | 3,269% |
